Reference: PMC7331820, “Identification of the amino acid position controlling the different enzymatic activities in walnut tyrosinase isoenzymes (jrPPO1 and jrPPO2)” (Scientific Reports, 2020)
Numbering of substitutions follows the chain as printed. Names may count otherwise.

What was measured:
Experiment in all cases: photometric initial rates, Michaelis-Menten fit
[1] = target: T1, jrPPO1 (Juglans regia, UniProt C0LU17); assay type: biochemical; settings: pH 6.0, 50 mM sodium phosphate, 2.0 mM SDS as activator, 25 °C
T1 construct: gene PPO1; latent enzyme (active domain plus C-terminal domain, no transit peptide), expressed in E. coli from pGEX-6P-1 with N-terminal GST tag (tag absent by mass)
T1 sequence (C0LU17 entry or part of it): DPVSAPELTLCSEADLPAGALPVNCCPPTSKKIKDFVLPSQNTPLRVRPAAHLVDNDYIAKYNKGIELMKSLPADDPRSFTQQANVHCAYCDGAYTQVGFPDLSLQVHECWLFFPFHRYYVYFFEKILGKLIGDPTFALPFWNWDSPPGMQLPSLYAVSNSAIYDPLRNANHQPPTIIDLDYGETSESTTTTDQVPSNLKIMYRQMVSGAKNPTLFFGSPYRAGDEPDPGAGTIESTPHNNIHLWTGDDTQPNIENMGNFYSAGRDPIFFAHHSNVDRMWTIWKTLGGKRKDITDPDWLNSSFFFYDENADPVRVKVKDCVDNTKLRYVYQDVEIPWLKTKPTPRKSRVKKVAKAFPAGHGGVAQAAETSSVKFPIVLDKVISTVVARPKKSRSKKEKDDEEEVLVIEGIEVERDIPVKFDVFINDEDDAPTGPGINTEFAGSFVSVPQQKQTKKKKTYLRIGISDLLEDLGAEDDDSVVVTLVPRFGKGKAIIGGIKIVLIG
Text: (§1) photometric initial rates, Michaelis-Menten fit on jrPPO1

[2] = target: T2, jrPPO2 (Juglans regia, UniProt A0A2I4DDQ0, D361N/F398L/S401P/D582N); assay type: biochemical; settings: pH 6.0, 50 mM sodium phosphate, 2.5 mM SDS as activator, 25 °C
T2 construct: gene LOC108979139; latent enzyme (active domain plus C-terminal domain, no transit peptide), E. coli, pGEX-6P-1, N-terminal GST tag (absent by mass)
Text: (§2) photometric initial rates, Michaelis-Menten fit on jrPPO2

[3] = substrate: O=C(O)c1cc(O)c(O)c(O)c1; assay type: biochemical, Juglans regia; settings: pH 6.0, 50 mM sodium phosphate, 2.5 mM SDS as activator, 25 °C
Text: as §2

[4] = substrate: O=C(O)c1ccc(O)c(O)c1; assay type: biochemical, Juglans regia; settings: pH 6.0, 50 mM sodium phosphate, 2.5 mM SDS as activator, 25 °C
Text: as §2

[5] = substrate: NCCc1ccc(O)c(O)c1; assay type: biochemical, Juglans regia; settings: pH 6.0, 50 mM sodium phosphate, 2.5 mM SDS as activator, 25 °C
Text: as §2

[6] = substrate: NCCc1ccc(O)cc1; assay type: biochemical, Juglans regia; settings: pH 6.0, 50 mM sodium phosphate, 2.5 mM SDS as activator, 25 °C
Text: as §2

[7] = substrate: O=C1c2c(O)cc(O)cc2O[C@H](c2ccc(O)c(O)c2)[C@H]1O; assay type: biochemical, Juglans regia; settings: pH 6.0, 50 mM sodium phosphate, 2.5 mM SDS as activator, 10% DMSO, 25 °C
Text: as §2

[8] = substrate: CCOC(=O)c1cc(O)c(O)c(O)c1; assay type: biochemical, Juglans regia; settings: pH 6.0, 50 mM sodium phosphate, 2.5 mM SDS as activator, 25 °C
Text: as §2

[9] = substrate: O=C(O)Cc1ccc(O)cc1; assay type: biochemical, Juglans regia; settings: pH 6.0, 50 mM sodium phosphate, 2.5 mM SDS as activator, 25 °C
Text: as §2

[10] = substrate: N[C@@H](Cc1ccc(O)c(O)c1)C(=O)O; assay type: biochemical, Juglans regia; settings: pH 6.0, 50 mM sodium phosphate, 2.5 mM SDS as activator, 25 °C
Text: as §2

[11] = substrate: O=C(O)/C=C/c1ccc(O)cc1; assay type: biochemical, Juglans regia; settings: pH 6.0, 50 mM sodium phosphate, 2.5 mM SDS as activator, 25 °C
Text: as §2

[12] = substrate: O=C(O)/C=C/c1ccc(O)c(O)c1; assay type: biochemical, Juglans regia; settings: pH 6.0, 50 mM sodium phosphate, 2.5 mM SDS as activator, 25 °C
Text: as §2

[13] = substrate: NCCc1ccc(O)c(O)c1; assay type: biochemical, Juglans regia; settings: pH 6.0, 50 mM sodium phosphate, 2.0 mM SDS as activator, 25 °C
Text: as §1

Molecule: Oc1cccc(O)c1O [compound 1, Pyrogallol]
- Km [1]: 1200 ± 130 µM
- Km [2]: 1000 ± 120 µM

B1: jrPPO2 (Juglans regia; D361N/D582N/F398L/S401P) (protein)
chain: APVSAPDITKCGKADFPAGAKPTNCCPPPSTKIIDFKLPTKNSPLRVRPAAHLADKEYIAKYNKAIELMKALPADDPRNFTQQANVHCAYCDGAYEQVGFPNLDLQVHNSWLFFPFHRYYLYFYEKILGKLIGDPTFALPFWNWDAPAGMQLPAMYANPKSSLYDALRNANHQPPTLMDLDYNGTDEETTSQDQLSANLSIMYRQMVSNGKNAKLFLGSAYRAGDEPDPGAGSIENIPHGPVHIWTGDNTQPNLENMGNFYSAGRDPIFFAHHSNVDRMWSIWKTLGGKRTDLTEPDWLNAGFLFYDENGQAVRVKVKDCLDTTKLGYVYQDVDLPWLKSKPTRKSKLKKVAKFFHLGHQGDVAIAAETSPSVNFPIVLDKVISTVVARPRKSRSKKEKEDEEEVLVIGAIEFDRDAPVKFDVFINDEDDSPTTRPDKTEFAGSFVNVPHKHKHGKKMNTCLRLGISDLLEDLDAENDDTIVVTLVPRYGKGLASINGIKIELLD
notes: latent enzyme (active domain plus C-terminal domain, no transit peptide), E. coli, pGEX-6P-1, N-terminal GST tag (absent by mass)
- Km [3]: 180 ± 40 µM
- kcat [3]: 2.07 ± 0.18 s⁻¹
- kcat/Km [3]: 11500 ± 2740 M⁻¹ s⁻¹
- Km [4]: 90 ± 20 µM
- kcat [4]: 9.84 ± 0.52 s⁻¹
- kcat/Km [4]: 109000 ± 25000 M⁻¹ s⁻¹
- Km [5]: 790 ± 170 µM
- kcat [5]: 186 ± 19.1 s⁻¹
- kcat/Km [5]: 235000 ± 56100 M⁻¹ s⁻¹
- Km [6]: 490 ± 110 µM
- kcat [6]: 9.14 ± 0.83 s⁻¹
- kcat/Km [6]: 18700 ± 4650 M⁻¹ s⁻¹
- Km [7]: 920 ± 150 µM
- kcat [7]: 19.6 ± 2.04 s⁻¹
- kcat/Km [7]: 21300 ± 4120 M⁻¹ s⁻¹
- Km [8]: 6600 ± 790 µM
- kcat [8]: 59.5 ± 3.89 s⁻¹
- kcat/Km [8]: 9020 ± 1220 M⁻¹ s⁻¹
- Km [9]: 4430 ± 550 µM
- kcat [9]: 32.3 ± 2.18 s⁻¹
- kcat/Km [9]: 7290 ± 1030 M⁻¹ s⁻¹
- Km [10]: 5660 ± 700 µM
- kcat [10]: 132 ± 7.05 s⁻¹
- kcat/Km [10]: 23300 ± 3140 M⁻¹ s⁻¹
- Km [11]: 940 ± 120 µM
- kcat [11]: 0.37 ± 0.02 s⁻¹
- kcat/Km [11]: 390 ± 50 M⁻¹ s⁻¹
- Km [12]: 210 ± 20 µM
- kcat [12]: 8.37 ± 0.2 s⁻¹
- kcat/Km [12]: 39900 ± 3910 M⁻¹ s⁻¹

B2: jrPPO1 (Juglans regia; N340G) (protein)
chain: DPVSAPELTLCSEADLPAGALPVNCCPPTSKKIKDFVLPSQNTPLRVRPAAHLVDNDYIAKYNKGIELMKSLPADDPRSFTQQANVHCAYCDGAYTQVGFPDLSLQVHECWLFFPFHRYYVYFFEKILGKLIGDPTFALPFWNWDSPPGMQLPSLYAVSNSAIYDPLRNANHQPPTIIDLDYGETSESTTTTDQVPSNLKIMYRQMVSGAKNPTLFFGSPYRAGDEPDPGAGTIESTPHGNIHLWTGDDTQPNIENMGNFYSAGRDPIFFAHHSNVDRMWTIWKTLGGKRKDITDPDWLNSSFFFYDENADPVRVKVKDCVDNTKLRYVYQDVEIPWLKTKPTPRKSRVKKVAKAFPAGHGGVAQAAETSSVKFPIVLDKVISTVVARPKKSRSKKEKDDEEEVLVIEGIEVERDIPVKFDVFINDEDDAPTGPGINTEFAGSFVSVPQQKQTKKKKTYLRIGISDLLEDLGAEDDDSVVVTLVPRFGKGKAIIGGIKIVLIG
notes: latent enzyme (active domain plus C-terminal domain, no transit peptide), expressed in E. coli from pGEX-6P-1 with N-terminal GST tag (tag absent by mass)
- Km [13]: 490 ± 70 µM
- kcat [13]: 300 ± 16.5 s⁻¹
- kcat/Km [13]: 612000 ± 93700 M⁻¹ s⁻¹

B3: jrPPO2 (Juglans regia; D361N/D582N/F398L/G345N/S401P) (protein)
chain: B1 chain with G240N
notes: as for B1
- Km [6]: 210 ± 60 µM
- kcat [6]: 10.9 ± 0.71 s⁻¹
- kcat/Km [6]: 51900 ± 15300 M⁻¹ s⁻¹
